The text below walks through data of article PMC10476280.

“And” between values parts separate entries of the source, which are not always exact repeats. Equal values may be shown once.

Data set [1] has as its system Cse4(CENP-A)-GFP (Saccharomyces cerevisiae (W303, SBY3 derivative)). Put plainly: single-molecule TIRFM endpoint colocalization. The following applies: yeast whole cell extract, single-molecule TIRFM on surface-tethered DNA, buffer, salt, pH and temperature not given in the material.
The subject of data set [2] is histone H3 (Saccharomyces cerevisiae (W303, SBY3 derivative)). Nature of the data set: single-molecule TIRFM endpoint colocalization. The note with it: yeast whole cell extract, single-molecule TIRFM on surface-tethered DNA, buffer, salt, pH and temperature not given in the material.
The test system of data set [3] is Scm3(HJURP) (Saccharomyces cerevisiae (W303, SBY3 derivative)). Put plainly: single-molecule TIRFM residence assay. The following applies: yeast whole cell extract, single-molecule TIRFM on surface-tethered DNA; buffer, salt, pH and temperature not given in the material.
Data set [4] deals with Cse4(CENP-A)-GFP (Saccharomyces cerevisiae (W303, SBY3 derivative)). Nature of the data set: single-molecule TIRFM endpoint colocalization. The following applies: yeast whole cell extract, single-molecule TIRFM on surface-tethered DNA; buffer, salt, pH and temperature not given in the material.
Data set [5] has as its system Ndc10-mCherry (CBF3 component) (Saccharomyces cerevisiae (W303, SBY3 derivative)). Nature of the data set: single-molecule TIRFM endpoint colocalization. The following applies: WT extract; yeast whole cell extract, single-molecule TIRFM on surface-tethered DNA; buffer, salt, pH and temperature not given in the material.

Regarding Widom-601-CDEIII hybrid, the results for the binding signal (% DNA colocalized) in data set [1] and in data set [2] (low level) were 3.1 and 4.1, respectively.
For the substance CEN9 DNA, the binding signal (% DNA colocalized) in data set [1] (WT extract) was 22.
Regarding alpha-sat CEN DNA, the binding signal (% DNA colocalized) in data set [1] was determined as 1.7.
Take CEN7 DNA: the binding signal (% DNA colocalized) in data set [1] (WT extract) turned out to be 18.
In the case of CEN3 DNA (WT, ~750 bp), the binding signal (residences per DNA (45 min)) in data set [3] came to 0.57. Besides, the binding signal (% DNA colocalized) is 5 and 8 in data set [4]; 50 in data set [1] (WT extract); 19.3 in data set [1]; 70 in data set [5]; 5.5 in data set [2] (low level).
Take Widom-601 DNA: the binding signal (% DNA colocalized) in data set [2] amounted to 7.1.
